# Laboratory results: US20150218230
# What was measured:
# Assay in all cases: cell_activity
# [1] = system: TALE-nuclease collection F HD-NG-HD (synthetic)
# [2] = system: TALE-nuclease collection F HD-NN-NN (synthetic)
# [3] = system: TALE-nuclease collection F NG-HD-HD (synthetic)
# [4] = system: TALE-nuclease collection F NG-HD-NG (synthetic)
# [5] = system: TALE-nuclease collection F NG-HD-NI (synthetic)
# [6] = system: TALE-nuclease collection F NG-HD-NN (synthetic)
# [7] = system: TALE-nuclease collection F NG-NG-HD (synthetic)
# [8] = system: TALE-nuclease collection F NG-NG-NG (synthetic)
# [9] = system: TALE-nuclease collection F NG-NG-NI (synthetic)
# [10] = system: TALE-nuclease collection F NG-NG-NN (synthetic)
# [11] = system: TALE-nuclease collection F NG-NI-HD (synthetic)
# [12] = system: TALE-nuclease collection F NG-NI-NG (synthetic)
# [13] = system: TALE-nuclease collection F NG-NI-NI (synthetic)
# [14] = system: TALE-nuclease collection F NG-NI-NN (synthetic)
# [15] = system: TALE-nuclease collection F NG-NN-HD (synthetic); details: GFP disruption, mammalian cells, rank 1
# [16] = system: TALE-nuclease collection F NG-NN-NG (synthetic)
# [17] = system: TALE-nuclease collection F NG-NN-NN (synthetic)
# [18] = system: TALE-nuclease collection F NI-NG-HD (synthetic)
# [19] = system: TALE-nuclease collection F NI-NN-NG (synthetic)
# [20] = system: TALE-nuclease collection F NI-NN-NN (synthetic)
# [21] = system: TALE-nuclease collection F NN-NG-NI (synthetic)
# [22] = system: TALE-nuclease collection F NN-NI-HD (synthetic)
# [23] = system: TALE-nuclease collection F NN-NI-NG (synthetic)
# [24] = system: TALE-nuclease collection F NN-NI-NN (synthetic)
substance,measurement,setting,value
integrated GFP locus TALE-nuclease target,activity (% GFP negative cells),[1],3.9
same,activity (% GFP negative cells),[2],4.4
same,activity (% GFP negative cells),[3],18.9
same,activity (% GFP negative cells),[4],14.7
same,activity (% GFP negative cells),[5],4.5
same,activity (% GFP negative cells),[6],6.5
same,activity (% GFP negative cells),[7],21
same,activity (% GFP negative cells),[8],19.5
same,activity (% GFP negative cells),[9],9.4
same,activity (% GFP negative cells),[10],18.6
same,activity (% GFP negative cells),[11],22.8
same,activity (% GFP negative cells),[12],18.3
same,activity (% GFP negative cells),[13],12.6
same,activity (% GFP negative cells),[14],17.7
same,activity (% GFP negative cells),[15],28.8
same,activity (% GFP negative cells),[16],22.2
same,activity (% GFP negative cells),[17],19.8
same,activity (% GFP negative cells),[18],3.6
same,activity (% GFP negative cells),[19],5.9
same,activity (% GFP negative cells),[20],6.2
same,activity (% GFP negative cells),[21],7.6
same,activity (% GFP negative cells),[22],5.3
same,activity (% GFP negative cells),[23],5.1
same,activity (% GFP negative cells),[24],3.2
